Common to all, as to details: remark: other sources report otherwise
In test [1] the target is T1, SNAP-tagged FUS (Fused in sarcoma), P35637.
T1 chain: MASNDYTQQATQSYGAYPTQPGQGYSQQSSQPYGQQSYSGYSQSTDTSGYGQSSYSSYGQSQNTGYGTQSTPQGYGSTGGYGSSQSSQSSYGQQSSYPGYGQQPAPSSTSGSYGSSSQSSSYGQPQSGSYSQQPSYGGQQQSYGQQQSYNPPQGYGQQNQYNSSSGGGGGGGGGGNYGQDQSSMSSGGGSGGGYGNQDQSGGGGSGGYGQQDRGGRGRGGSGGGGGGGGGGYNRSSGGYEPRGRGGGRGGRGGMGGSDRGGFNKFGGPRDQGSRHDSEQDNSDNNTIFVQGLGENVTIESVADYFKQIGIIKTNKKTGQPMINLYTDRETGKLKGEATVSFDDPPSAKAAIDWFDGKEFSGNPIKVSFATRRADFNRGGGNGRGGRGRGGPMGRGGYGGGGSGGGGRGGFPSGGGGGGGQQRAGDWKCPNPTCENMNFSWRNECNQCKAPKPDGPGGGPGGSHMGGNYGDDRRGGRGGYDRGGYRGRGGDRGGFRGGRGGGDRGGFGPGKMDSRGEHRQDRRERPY
The test is described as follows: nanoparticle tracking analysis (NTA); mesoscale clusters in sub-saturated solutions; 100 mM KGlu and 100 mM KCl, 25 °C, recorded 6 minutes after sample preparation.

Test [2] concerns the target T1, SNAP-tagged FUS (Fused in sarcoma), …. Put plainly: dynamic light scattering (DLS); derived count rate and size distributions in sub-saturated solutions; 20 mM Tris.Glu pH 7.4, 100 mM KGlu (with residual KCl from the stock), 25 °C; self-association into clusters.
The target in test [3] is T2, untagged FUS (Fused in sarcoma), P35637.
T2 chain: T1 chain
Put plainly: nanoparticle tracking analysis (NTA); mesoscale clusters in sub-saturated solutions; 100 mM KGlu and 100 mM KCl, 25 °C, recorded 6 minutes after sample preparation.

Our source for the abundance of mesoscale clusters in 100 mM KGlu relative to 100 mM KCl and derived count rate in 100 mM KGlu relative to 100 mM KCl values is PMC10543311.

A value given as a limit tells only on which side of the number the result lay.

B1: SNAP-tagged FUS (Fused in sarcoma), P35637 1-526 (natural protein)
chain: T1 chain
modifications: here or on the partner: Alexa 488 (AF488) or Alexa 647 (AF647) label in the smFRET and FCS experiments; unlabelled elsewhere; Alexa 488 (AF488) or Alexa 647 (AF647) label in the smFRET and FCS experiments; unlabelled elsewhere
In test [1], B1 showed an abundance of mesoscale clusters in 100 mM KGlu relative to 100 mM KCl of 4 fold. In test [2], this molecule gave a derived count rate in 100 mM KGlu relative to 100 mM KCl of less than 3 fold.

B2: untagged FUS (Fused in sarcoma), P35637 1-526 (natural protein)
chain: T1 chain
On to B2, for which the abundance of mesoscale clusters in 100 mM KGlu relative to 100 mM KCl in test [3] was 4 fold.
